Experimental data: patent US7262289 (Bristol-Myers Squibb, dated 2007)

Biological target: T1, human KCNQ3/KvLR2 (human, UniProt O43525 25-872)
T1 sequence: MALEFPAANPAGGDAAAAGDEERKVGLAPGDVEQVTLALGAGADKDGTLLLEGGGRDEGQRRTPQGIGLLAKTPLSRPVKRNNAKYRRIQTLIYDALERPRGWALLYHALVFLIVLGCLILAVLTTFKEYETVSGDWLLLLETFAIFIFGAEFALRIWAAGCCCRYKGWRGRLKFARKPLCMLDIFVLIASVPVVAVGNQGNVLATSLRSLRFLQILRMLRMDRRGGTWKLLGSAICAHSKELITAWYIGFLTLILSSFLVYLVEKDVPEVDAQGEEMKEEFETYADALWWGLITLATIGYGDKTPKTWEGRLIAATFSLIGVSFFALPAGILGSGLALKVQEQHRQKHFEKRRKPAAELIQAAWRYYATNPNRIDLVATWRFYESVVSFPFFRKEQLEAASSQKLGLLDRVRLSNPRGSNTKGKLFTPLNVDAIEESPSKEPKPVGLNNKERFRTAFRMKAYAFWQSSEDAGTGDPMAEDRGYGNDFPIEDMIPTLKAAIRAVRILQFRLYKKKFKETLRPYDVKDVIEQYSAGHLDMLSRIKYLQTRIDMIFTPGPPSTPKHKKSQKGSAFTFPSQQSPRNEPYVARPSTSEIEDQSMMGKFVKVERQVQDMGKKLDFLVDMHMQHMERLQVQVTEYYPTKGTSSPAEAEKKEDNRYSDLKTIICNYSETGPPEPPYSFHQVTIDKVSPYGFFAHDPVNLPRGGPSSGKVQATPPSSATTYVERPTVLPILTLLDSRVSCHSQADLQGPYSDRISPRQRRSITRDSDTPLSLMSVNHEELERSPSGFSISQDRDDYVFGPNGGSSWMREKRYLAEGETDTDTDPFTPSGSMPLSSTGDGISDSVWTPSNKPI
Assay: cell-based or functional assay

current amplitude in oocytes co-expressing KCNQ2 and KCNQ3 against oocytes injected with each channel alone (two-electrode voltage clamp): 15 fold | shift of tail current reversal potential per 10-fold change in external K+ for KCNQ2+KCNQ3: 57 mV
B1: human KCNQ2/KvLR1 (other)
chain: MVQKSRNGGVYPGPSGEKKLKVGFVGLDPGAPDSTRDGALLIAGSEAPKRGSILSKPRAGGAGAGKPPKRNAFYRKLQNFLYNVLERPRGWAFIYHAYVFLLVFSCLVLSVFSTIKEYEKSSEGALYILEIVTIVVFGVEYFVRIWAAGCCCRYRGWRGRLKFARKPFCVIDIMVLIASIAVLAAGSQGNVFATSALRSLRFLQILRMIRMDRRGGTWKLLGSVVYAHSKELVTAWYIGFLCLILASFLVYLAEKGENDHFDTYADALWWGLITLTTIGYGDKYPQTWNGRLLAATFTLIGVSFFALPAGILGSGFALKVQEQHRQKHFEKRRNPAAGLIQSAWRFYATNLSRTDLHSTWQYYERTVTVPMYSSQTQTYGASRLIPPLNQLELLRNLKSKSGLAFRKDPPPEPSPSKGSPCRGPLCGCCPGRSSQKVSLKDRVFSSPRGVAAKGKGSPQAQTVRRSPSADQSLEDSPSKVPKSWSFGDRSRARQAFRIKGAASRQNSEASLPGEDIVDDKSCPCEFVTEDLTPGLKVSIRAVCVMRFLVSKRKFKESLRPYDVMDVIEQYSAGHLDMLSRIKSLQSRVDQIVGRGPAITDKDRTKGPAEAELPEDPSMMGRLGKVEKQVLSMEKKLDFLVNIYMQRMGIPPTETEAYFGAKEPEPAPPYHSPEDSREHVDRHGCIVKIVRSSSSTGQKNFSAPPAAPPVQCPPSTSWQPQSHPRQGHGTSPVGDHGSLVRIPPPPAHERSLSAYGGGNRASMEFLRQEDTPGCRPPEGTLRDSDTSISIPSVDHEELERSFSGFSISQSKENLDALNSCYAAVAPCAKVRPYIAEGESDTDSDLCTPCGPPPRSATGEGPFGDVGWAGPRK
